T1: PUF4 RNA-binding domain (Saccharomyces cerevisiae, UniProt P25339 537-888)
T1 sequence: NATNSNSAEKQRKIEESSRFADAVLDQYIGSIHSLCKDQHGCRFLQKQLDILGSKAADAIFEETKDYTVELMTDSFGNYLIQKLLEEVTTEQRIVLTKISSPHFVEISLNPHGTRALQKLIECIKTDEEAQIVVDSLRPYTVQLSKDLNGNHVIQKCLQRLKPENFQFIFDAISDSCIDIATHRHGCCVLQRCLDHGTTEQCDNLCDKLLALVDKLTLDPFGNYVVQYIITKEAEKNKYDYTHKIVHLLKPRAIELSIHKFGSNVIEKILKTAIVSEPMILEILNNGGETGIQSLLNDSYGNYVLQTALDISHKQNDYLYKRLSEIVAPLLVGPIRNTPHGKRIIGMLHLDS

B1: Id_ii_S1_P5E.4_K5.3_C5.2_[C-2T]_H5.3_A5.1_F5.1_T5.2_[T11A]_[A12C] (ssRNA)
RNA: UCUCUUUUACACUUAUUAACUCUCUU
B2: Id_ii_S1_P5E.4_K5.3_C5.2_[C-2T]_H5.3_A5.1_F5.1_T5.2_[T11A] (ssRNA)
RNA: UCUCUUUUACACUUAUUAAAUCUCUU
B3: Id_ii_S1_P5E.4_K5.3_C5.2_[C-2T]_H5.3_A5.1_F5.1_T5.2_[A12G] (ssRNA)
RNA: UCUCUUUUACACUUAUUAUGUCUCUU
B4: Id_ii_S1_P5E.4_K5.3_C5.2_[C-2T]_H5.3_A5.1_F5.1_T5.2_[A12C] (ssRNA)
RNA: UCUCUUUUACACUUAUUAUCUCUCUU
B5: Id_ii_S1_P5E.4_K5.3_C5.2_[C-2T]_H5.3_A5.1_F5.1_T5.2_[A12T] (ssRNA)
RNA: UCUCUUUUACACUUAUUAUUUCUCUU
B6: Id_ii_S1_P5E.4_K5.3_C5.2_[C-2T]_H5.3_A5.1_F5.1_T5.2 (ssRNA)
RNA: UCUCUUUUACACUUAUUAUAUCUCUU
B7: Id_ii_S1_P5E.4_K5.3_C5.2_[C-2A]_[T-1G]_H5.3_A5.1_F5.1_T5.2_[T11C]_[A12C] (ssRNA)
RNA: UCUCUUAGACACUUAUUACCUCUCUU
B8: Id_ii_S1_P5E.4_K5.3_C5.2_[C-2A]_[T-1G]_H5.3_A5.1_F5.1_T5.2_[T11C]_[A12T] (ssRNA)
RNA: UCUCUUAGACACUUAUUACUUCUCUU
B9: Ib_S1_P5E.1_K5.1_C5.1_H5.1_A5.1_F5.1_[T9G]_[A10T]_T5.1 (ssRNA)
RNA: UCUCUUUGUAUUAUGUUCUCUU
B10: Id_ii_S1_P5E.4_K5.3_C5.2_[C-2A]_[T-1G]_H5.3_A5.1_F5.1_T5.2_[T11C] (ssRNA)
RNA: UCUCUUAGACACUUAUUACAUCUCUU
B11: Id_ii_S1_P5E.4_K5.3_C5.2_[C-2A]_[T-1G]_H5.3_A5.1_F5.1_T5.2_[T11A]_[A12C] (ssRNA)
RNA: UCUCUUAGACACUUAUUAACUCUCUU
B12: Id_ii_S1_P5E.4_K5.3_C5.2_[C-2A]_[T-1G]_H5.3_A5.1_F5.1_T5.2_[T11A]_[A12T] (ssRNA)
RNA: UCUCUUAGACACUUAUUAAUUCUCUU
B13: Id_ii_S1_P5E.4_K5.3_C5.2_[C-2A]_[T-1G]_H5.3_A5.1_F5.1_T5.2_[T11A] (ssRNA)
RNA: UCUCUUAGACACUUAUUAAAUCUCUU
B14: Id_ii_S1_P5E.4_K5.3_C5.2_[C-2A]_[T-1G]_H5.3_A5.1_F5.1_T5.2_[A12T] (ssRNA)
RNA: UCUCUUAGACACUUAUUAUUUCUCUU
B15: Id_ii_S1_P5E.4_K5.3_C5.2_[C-2A]_[T-1C]_H5.3_A5.1_F5.1_T5.2_[T11G]_[A12C] (ssRNA)
RNA: UCUCUUACACACUUAUUAGCUCUCUU
B16: Id_ii_S1_P5E.4_K5.3_C5.2_[C-2A]_[T-1C]_H5.3_A5.1_F5.1_T5.2_[T11C]_[A12C] (ssRNA)
RNA: UCUCUUACACACUUAUUACCUCUCUU
B17: Id_ii_S1_P5E.4_K5.3_C5.2_[C-2A]_[T-1C]_H5.3_A5.1_F5.1_T5.2_[T11A]_[A12T] (ssRNA)
RNA: UCUCUUACACACUUAUUAAUUCUCUU
B18: Id_ii_S1_P5E.4_K5.3_C5.2_[C-2A]_[T-1C]_H5.3_A5.1_F5.1_T5.2_[T11A] (ssRNA)
RNA: UCUCUUACACACUUAUUAAAUCUCUU
B19: Id_ii_S1_P5E.4_K5.3_C5.2_[C-2A]_[T-1C]_H5.3_A5.1_F5.1_T5.2_[A12T] (ssRNA)
RNA: UCUCUUACACACUUAUUAUUUCUCUU
B20: Ib_S1_P5E.1_K5.1_C5.1_H5.1_A5.1_F5.1_[T9C]_[A10G]_T5.1 (ssRNA)
RNA: UCUCUUUGUAUUAUCGUCUCUU
B21: Id_ii_S1_P5E.4_K5.3_C5.2_[C-2A]_[T-1C]_H5.3_A5.1_F5.1_T5.2 (ssRNA)
RNA: UCUCUUACACACUUAUUAUAUCUCUU
B22: Id_ii_S1_P5E.4_K5.3_C5.2_[C-2A]_[T-1A]_H5.3_A5.1_F5.1_T5.2_[T11C]_[A12G] (ssRNA)
RNA: UCUCUUAAACACUUAUUACGUCUCUU
B23: Id_ii_S1_P5E.4_K5.3_C5.2_[C-2A]_[T-1A]_H5.3_A5.1_F5.1_T5.2_[T11C]_[A12C] (ssRNA)
RNA: UCUCUUAAACACUUAUUACCUCUCUU
B24: Id_ii_S1_P5E.4_K5.3_C5.2_[C-2A]_[T-1A]_H5.3_A5.1_F5.1_T5.2_[T11C]_[A12T] (ssRNA)
RNA: UCUCUUAAACACUUAUUACUUCUCUU
B25: Id_ii_S1_P5E.4_K5.3_C5.2_[C-2A]_[T-1A]_H5.3_A5.1_F5.1_T5.2_[T11C] (ssRNA)
RNA: UCUCUUAAACACUUAUUACAUCUCUU
B26: Id_ii_S1_P5E.4_K5.3_C5.2_[C-2A]_[T-1A]_H5.3_A5.1_F5.1_T5.2_[T11A]_[A12C] (ssRNA)
RNA: UCUCUUAAACACUUAUUAACUCUCUU
B27: Id_ii_S1_P5E.4_K5.3_C5.2_[C-2A]_[T-1A]_H5.3_A5.1_F5.1_T5.2_[T11A]_[A12T] (ssRNA)
RNA: UCUCUUAAACACUUAUUAAUUCUCUU
B28: Id_ii_S1_P5E.4_K5.3_C5.2_[C-2A]_[T-1A]_H5.3_A5.1_F5.1_T5.2_[A12T] (ssRNA)
RNA: UCUCUUAAACACUUAUUAUUUCUCUU
B29: Id_ii_S1_P5E.4_K5.3_C5.2_[C-2A]_[T-1A]_H5.3_A5.1_F5.1_T5.2 (ssRNA)
RNA: UCUCUUAAACACUUAUUAUAUCUCUU
B30: Id_ii_S1_P5E.4_K5.3_C5.2_[C-2A]_H5.3_A5.1_F5.1_T5.2_[T11G]_[A12C] (ssRNA)
RNA: UCUCUUAUACACUUAUUAGCUCUCUU
B31: Ib_S1_P5E.1_K5.1_C5.1_H5.1_A5.1_F5.1_[T9C]_[A10C]_T5.1 (ssRNA)
RNA: UCUCUUUGUAUUAUCCUCUCUU

Target: T1, PUF4 RNA-binding domain
Experiment: Mg; RNA-MaP; 20 mM Na-HEPES pH 7.4, 30 mM KOAc, 0.75 mM MgCl2, 0.1% Tween-20, 5% glycerol, 0.1 mg/mL BSA, 2 mM DTT; 25 C; 0.0125-409.6 nM protein
Conditions: tags: N-His6-TEV cleaved; C-SNAP kept, Cy3B-labelled; label: tethered on chip by stalled RNA polymerase

| Binder | Kd |
| --- | --- |
| B1 | > 2300 nM |
| B2 | > 2300 nM |
| B3 | > 2300 nM |
| B4 | > 2300 nM |
| B5 | > 2300 nM |
| B6 | > 2300 nM |
| B7 | > 2300 nM |
| B8 | > 2300 nM |
| B9 | 10.8 nM |
| B10 | > 2300 nM |
| B11 | > 2300 nM |
| B12 | > 2300 nM |
| B13 | > 2300 nM |
| B14 | > 2300 nM |
| B15 | > 2300 nM |
| B16 | > 2300 nM |

| Binder | Kd |
| --- | --- |
| B17 | > 2300 nM |
| B18 | > 2300 nM |
| B19 | > 2300 nM |
| B20 | 30.6 nM |
| B21 | > 2300 nM |
| B22 | > 2300 nM |
| B23 | > 2300 nM |
| B24 | > 2300 nM |
| B25 | > 2300 nM |
| B26 | > 2300 nM |
| B27 | > 2300 nM |
| B28 | > 2300 nM |
| B29 | > 2300 nM |
| B30 | 647 nM |
| B31 | 26.8 nM |

— paper PMC9352680, “A comprehensive thermodynamic model for RNA binding by the Saccharomyces cerevisiae Pumilio protein PUF4”
